Among the data in a protein production outcome set (Wang et al. 2014) are protein production values, retold here.

The data set is described as follows: label from the status in PepcDB records.
Regarding “MTALRQDIDPNGLLEYSVVYTDRALNHMSKAFQEVMNDLLSNLKTVYNAEAAVIIPGSGTYGMEAVARQLTIDEDCLIIRNGWFSYRWTQILEKGKFAKSSTVLTAERTEDTEAPKPFAPVDIETAVAKIKEDKSAIVYAPHVETSSGIILSEEYIKALSEAVHSVGGLLVIDCIASGCVWLDMKELGIDVLISAPQKGWSSTPCAGLVMLSAAAIKKVESTESNCFSLDLKQWLTIMRAYENGGHAYHATMPTDSLRQFRDAILEAKEIGFDILRDAQWELGNRVRKVLTDKGIESVAAEGFEAPGVVVSYTERDDMHKGSAFAEAGLQIAAGVPLKVGEPDNFKTFRLGLFGLDKLTDIDGTVERFEKALDEVLAK”, the protein production entry is “not failed”. As for “MTALTPLQRLWLTETVRLREEHAGPLEDQEANRLARNQGGDLATRIQNRALWLAQRDGLHSALLHWHQGARMALLALSVLAVISGAGLAFSALGSTQQPVNVFWALGSLLGINLILLLSWLAGLLFAGEHGASLGRLWLWLSEKFSRDAKAAQLPPALLLLLQRRKLNRWALGSLINGLWCLALFSAVVMLLLLLTTHRYSFVWESTLLGSDAFVAITNTLSALPRGLGFGAPSVASIQASTRDVYNTELIRQSWAIWLVVLVTIYGVLPRLLLMLFCRWRWKHGQARLQLDLNLPGYAQLRERLMPSSERLGVNDAAPEQLHRVEGGVSAQDSSGALLVAIELDNQRPWPPQLPESIKDAGILDSRESRSRLLEQMSRFPPARLVIACDPRRSPDRGSLGLIAELARNASATRVWLLQAPPGQALDADRLGDWHSALHKLQLPFADCAPLDWLENGHD”, the protein production result is “failed”. Turning to “MTARDDETIAFYSGHATAYTSRGQAPDRPHLETFLARLRAGAKILELGCGGGQDSEYMLSAGFDVHPTDGTPDIAKAAQARLGIPVRTLLFENIEDAALYDAVWANACLLHVPRLALPGIIGRIHTALKPGGVFYASFKAGEVEGRDTFGRYYNYPSKAWLEETYGQFAWTEVEIEARQGSGYDKLPTDWLHVTATKALEHHHHHH”, the protein production result is “not failed”.

Turning to “MTARELLKIVVVGHVDHGKSTIIGRLLYDTKSVPEAAIERVKRISKEKGRPFEYAYLLDALEEEQKQGITIDTTQIKFSTPKRDYLIIDAPGHKEFLKNMVSGAANAEAALLVIDAAEGVQEQSKRHAYILSLLGIQKVYVIVNKMDMIEFSEKKFKEIKYEISTFLSKLNVYPQKYIPVSGFLGENIARKSDKMPWYKGETLLQALDLFEKDKELEDRPLRFPIQDVYKFDHRRVIAGRLESGRLKVGDEIKILPEGKVSKVKSIEFWPENNKKDEVVAGMSIGITIEDEFFNKRGEVIVHKNDNTLYVSDTFRANLFWLGKRNLVKNKTYKLKLVTQETECEIVSIDKVIDATTLETVENALEVRTNDVAEVTIKTREKICFDEFKVNPTTGRFVLVDEYDVSGGGIISGLANLKEEATKFVKDDKEMIVHCFDEYYYSLSEGLIRKHSKYKRTFKVGDAVPIEGETYSYPESFDVIDINGKLVAKVRKGQLSDLVDIDQYIYSELPIITADGFYLKVNSIDEFKDFKNELVQLQKNDNFHLAMFANKWYDISANRSFKFTV”, the protein production entry is “failed”.

Regarding “MTARPDSSGASSRHDRLQRHPTPNARNSLWRWTDAKHPLRVALNYVVIVLARISPSLHAKNWLLARIGVTVGDGVAWGLESTPDVFWPELVTVGDDAIIGYDATLLCHEFLHDEYRTGAVVVEDRAMIGAGAVVLPGVTIGADAQVAANSLVTADVPPGETVAGVPAAPTGD”, the protein production entry is reported as “failed”. “MTARSNSSSSGTSSNKRPRTSGSSPSSKSRRGSGSGPAGRSRKTTSAVSYPTNSARRASETSEERTGSAFRAVGSGLGTLVSATAHGVGSVTRAVARTLHREHDDEEFDAVDDAFSSEETVVTNRKRKPSRMTKTKKNLFDDDIEDQHDDFDEEAGLGRFTLALSDESVDSIGLILIALAFIVGASVWFDIAGPIGAAIAAGVHFVIGAGALILPLALVAIAIALMLGKLPEPDHQPRLVLGTSVIAISMLGLIHLFAGDPADWQGRTHAGGIVGAYSGGMIARGFSVYLAIPLLVLVIIYGALRINNVTVKELFEAIQDTVQGLRDDSEDEDDPLYADADAEIEARSRGEKLHRPQPRREKPRPAPERRRMSAPLVDDVDEDVVSRPLFDDPSTAQSQKSSVETQRAARDVSETDEFPAVDEPTVVVPRKPSAPRMSLPQTPVTDVEAAADVVAAGRKAVQDAVKARESHNVGAALAPSTPAQPYEAPESHYAVPSTQLLIPGKEAKTHSEANDRMIEAISDVFAEFKVDAHVTGFSRGPTVTRYEVELGPGVKVSKITNLQSNLAYAVATDNVRLLTPIPGKSAVGIEVPNTDREMVRLGDVLNSESVHSDHDPMLIGLGKDIEGDFVAHSVQKMPHLLVAGSTGSGKSAFVNSLLVSLLTRATPEDVRLILVDPKMVELTPYEGIPHLITPIITQPKKAAAALQWLVEEMEQRYMDMKSTRVRHIKDFNRKVKSGEIQAPLGSQREYHPYPYIVCVVDELADLMMTAPKEIEDSIVRITQKARAAGIHLVLATQRPSVDVVTGLIKTNVPSRLAFATSSLTDSRVILDQAGAEKLIGMGDGLFIPQGGRPQRIQGAFVTDEEIQAVVDAAKAQGEPNYTEGVTEDKAAEAKKDIDADIGNDLEDLLQAVELVVTAQLGSTSMLQRKLRIGFAKAGRLMDLMETRGIVGPSEGSKAREVLVKPEELETTLWMIKGAKPEDAPKEDDWQSADSGVSDASDPSHGERAAYNPSSNAF”: the protein production result was “failed”. For the sequence “MTASNPTILALDFDGVICDGLIEYFEVAWRTYCQIWSPAENTPPDDLALRFYRLRPVIETGWEMPVLIKALVDGNSDDQILQEWTSITPKILLDDKLQAKEIATKLDGLRDEWIANDLDGWLSLHRFYQGVIEKLKIAVASEVKLYIVTTKEGRFVEQLLHQEGVDLPRDAIFGKEVKRPKYEIIRELIQAADHEPVSLWFVEDRIKTLQLVQQQSDLEDVKLFLADWGYNTQSERKAAQSDPRIQLLSLSQFAKDFPGWV”, the protein production entry is reported as “failed”. “MTASPLLTAFLPLALGIIMLGLGLSLTLADFARVVKYPKPVVVGLVCQILLLPLVCFLIANGFGLESALAVGLMLLAASPGGTTANLFSHLAHGDVALNITLTAVNSLIAILTMPLLVNLSLSWFMASDQAIPLQFAKVMQVFAIVLLPVALGMLIRHFAPAFAARMEKPMKLVAALFLAFTIVLALAKDWQTVVEYAPVVGLAALLFNLLSLTVGYWVPRLLNISKRQAIAIGMEIGIHNGTLAIALALSPSLLNNATMAVPAALYSLIMFFTAAGFGWWVSRGHVAAEPKGETVN”: the protein production result is “failed”. With “MTATPGTTVPAPIMQTTDNSLTWLLQNLLDRTPGTRHALVLSRDGLRLCWTEHLTLDRADQLAAICSGIQALAQGASVEFGNGTGGVRHSMTEFHGGLLFIVEAGEGAHLAVVAVEDADPGVVGHQMTELVEQIGEHLRAEPRHAVPGGSSS”, the protein production result is reported as “failed”. “MTAYDLKLKCVCDYIQQHLDETLSLQQLSEVAGLSRFHFHRIFYAHLGMNIMKYTQMLRLKRASFQLVFKPEVKVIEIALDAGFDSPEAFARAFKRSFDQTPSAFRVEPNWQNWHRKFVYFTPESELKMNVTIIERPVEKIAYISHQGSPEKVFETAAKFIEWRKRTGLSPVKTSATYGIPFSDPEQTPEKEFRFDIAGSITKSIDQNNEGIEMSEIPAGRYAMVRHWGSHDYIRDSVYFLFRNWLPAQQEEAGDYPVFFHYHNFVHEVKEADLVTDIYLLLK”: the protein production result is “failed”. The entry for “MTCAYRREIHHAHVAIRDWLAGDSRADALDALMARFAEDFSMVTPHGVVLDKTALGELFRSKGGTRPGLRIEIDGESLLASGVDGATLAYREIQSDAAGRSERLSTVVLHRDDEGRLYWRHLQETFCG” is “not failed”; for “MTCDQIPGRMRVKAERTPFRCPTPVKRKKAMSSAMPQPETTPILACTVSRDVQNFDLLIEDMEAAMGESWGDLGFAEALAFFGQPESESLEFIALAIDTEDEDNLVLMGEIITQAKSRGIKVILIAEDVTPASLHQLLRKGADEFVPYPLPERELQSAIDRMSKPEPEQAQTHHNTAHLNKGAAREGALIVVHGLAGGTGSTTMAVNLAWELANIGGEDAPSVCLMDLDLQHGSVSTYLDLPRREAVFEMLSETQSMDEEVFGQALLSFEDKLQVLTAPSDMVPLDILSPEDIQRVIEMARAHFDYVIVDMPKTLVQWSETILQAAHVYFAMIELDMRSAQNALRMKRALQSEDLPFNKLRFALNKAPKFTDLSGKSRVKRMGESLGISIDLQLPDGGKQVTQGADHGLPLATSAPKNPLRREIAKLAQSLHELGRSDAKAA” it is “failed”. For “MTCEGRRTMTQPISLGHRMSLIDLYDLRMPQRTGTYVLHEENLAIIETGPSPSVPHLLAGLKALHIDPADIRYIIVTHIHLDHAGGVGVLLEHCPNATVIVHPKGKRHLADPSRLIAGAKAVYGEQFDALFDPIVPVPEERLLVKEDGETLVLSAERTLTFYDTPGHANHHFSIYDSYSGGVFTGDTIGVFYPQLQEAGLAFCLPSTSPNQFNPEAMKQSAERLEKLNPTRIYFGHFGALDQPEEAFRQLRFWLPKFVAAGKEVIARHPEAPAAEQAKAVTKLLHNDITAFLNECSIPASSPVYKVIELDLQVCAMGIIDYWRKQRLEHHHHHH”, the protein production entry was “not failed”. Take “MTDAPLGRSAVYTILTTGYVGSTGPGVAATVSYVADGGRHVVFDPGMVASRDHILGPLAELGLGPDDITDVVLSHHHPDNTMNVGLFGRATVHDHKVEYLGDQWRNRDAEGYELTPSLRLIRTPGHSLEDITLLAGTDTGVVAFAGDLWWHSDGPADDPVAPDREVLRASRLRVLAAADLIVPGHGSPFKADITAPRLEHHHHHH”: the protein production result is reported as “not failed”. Turning to “MTDATAEQSVTADADDKPEPYNGLPGAFPYAFRATDSLLFKAYVPVALLLSVAITLVFSFGLITQLAETGSVRGGTFTFSRSFFLFVGLLLVAPLLAPVLSVARRHRRTASSVAYDRALALSAFLFIGSIYLALLTSAPAELREPTQSAVVGFFYSLPPIAGVVPPMLATLGIYLTHRLLK”, the protein production result is recorded as “failed”.

For “MTDDLLKPNRPHPLFKLATELGPLLVFFIVNAKFHLFAATGAFMVAVVAAVIASYVVTRHVPVMALVTAVVVLVFGTLTLVLHDETFIKMKPTIVYSLFGAVLAGGLLFGRSFIAIMFDQVFNLTAAGWRKLTLRWALFFFAMALLNEAVWRTQSTDFWVNFKVFGVVPLTMLFALLQMPLTKRYAAEPATLEQSAADEGDVSGR”, the protein production result is “not failed”. The entry for “MTDESDALCATEKEIMHATHRALVNSGYAELSISRISDELDKAKSTIYHYYDSKDALLLRFLRFTVDRFEATINTSIGDNPKEDLNHIISTLLPCQLPEEKRQLHSVLVTLSPQALERAVFREQFTEIDTRLATIIEKTVRRGVDADVFRDVDPTHAAEHILATIKGTMYSRLTTNREAATAAAKASLFSYIDSHLIS” is “failed”; for “MTDEVSVLFVDFLLEWLEMMRTRVRETTYASYNSGIRQSIIPYFMDKKLTLTDIEENPKYLQDFYQHELSKGLSPNSVLRRHANIRKALQHAFHLGLIKSNPADRIERPKKQDYTALEHHHHHH” it is “not failed”; for “MTDGEAVSAAAGPGAEGPPGPVGHWAPGSHILWRYRENGGPHVHIARPVTVVRDDADLLAVWLAPGTECVKPVLADGTPVHLEPLATRYTKPRTVQRDQWFGTGVLKLARPGEAWSVWLFWDPGWRFKNWYVNLERPLTRWEGGVDSEDHFLDISVHPDRTWHWRDEDEFAQALRDGLMDPASAGRVRRAGRSAVAEIRAWGSPFADGWEHWRPDPAWPVPSLPGDWDRTPAHVSS” it is “not failed”. Turning to “MTDNPFATPTAPVQPPAREVPATTQPYAFIAVLALVTCLSFAVSLGIQWYNDIGEIRQRFSEHLQLMAPHWFTGLVFYAAANLLVLHAYREKRQLVEFRPLALLLIGYGLLNLVCGMLAGIGLAPLTLPFYQWVTAQSSYGVWLMAFNEAMSWVYLLLGSLLPLGLVLLGSRVNSPRLAEGEEARVAAWQVALGAALCFATLCFKLMQFLPYALLRYDEPWLYGLYLSGVALPAALLFGAVCTRLPARLQRFAAGRALLLAVVAMLLWSVALLAVGGGLALLMILGLAPAGIGYTLLVALLGVGLLALLWPIGRLATRWCYADQLAA”, the protein production entry is reported as “failed”.
